Test results as given in article PMC11695602 (Communications Biology, 2025).

Tests used:
[1] = molecular target: T1, recombinant human CTNNA3 (CTNNA3-FLAG) (human, UniProt Q9UI47-1 1-895); experiment: co-IP
T1 sequence (looked up): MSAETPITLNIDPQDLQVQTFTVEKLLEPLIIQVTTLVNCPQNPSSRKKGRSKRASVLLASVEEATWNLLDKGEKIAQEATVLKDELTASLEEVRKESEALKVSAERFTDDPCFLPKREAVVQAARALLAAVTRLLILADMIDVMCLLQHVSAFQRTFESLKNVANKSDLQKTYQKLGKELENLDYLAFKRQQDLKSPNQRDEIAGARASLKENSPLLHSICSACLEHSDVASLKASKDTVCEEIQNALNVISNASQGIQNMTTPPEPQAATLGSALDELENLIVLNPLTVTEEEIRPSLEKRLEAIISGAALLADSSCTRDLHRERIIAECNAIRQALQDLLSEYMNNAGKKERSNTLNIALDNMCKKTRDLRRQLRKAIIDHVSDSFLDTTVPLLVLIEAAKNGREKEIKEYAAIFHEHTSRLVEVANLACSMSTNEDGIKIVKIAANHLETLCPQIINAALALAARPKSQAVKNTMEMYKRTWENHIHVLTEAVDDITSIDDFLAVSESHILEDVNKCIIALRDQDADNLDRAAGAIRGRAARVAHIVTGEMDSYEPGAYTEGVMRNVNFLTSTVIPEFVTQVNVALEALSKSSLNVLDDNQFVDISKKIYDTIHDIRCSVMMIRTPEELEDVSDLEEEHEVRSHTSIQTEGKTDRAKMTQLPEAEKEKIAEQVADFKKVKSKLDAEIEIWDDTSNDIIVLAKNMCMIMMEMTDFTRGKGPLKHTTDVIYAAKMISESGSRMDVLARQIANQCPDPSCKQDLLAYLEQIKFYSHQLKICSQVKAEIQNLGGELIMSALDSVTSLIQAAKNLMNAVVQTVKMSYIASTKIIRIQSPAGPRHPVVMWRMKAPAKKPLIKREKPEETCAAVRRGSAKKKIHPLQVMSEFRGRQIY

[2] = molecular target: recombinant human p53 (p53-FLAG) (human, UniProt P04637 1-393); experiment: co-IP
Sequence of recombinant human p53 (p53-FLAG) (P04637 whole entry): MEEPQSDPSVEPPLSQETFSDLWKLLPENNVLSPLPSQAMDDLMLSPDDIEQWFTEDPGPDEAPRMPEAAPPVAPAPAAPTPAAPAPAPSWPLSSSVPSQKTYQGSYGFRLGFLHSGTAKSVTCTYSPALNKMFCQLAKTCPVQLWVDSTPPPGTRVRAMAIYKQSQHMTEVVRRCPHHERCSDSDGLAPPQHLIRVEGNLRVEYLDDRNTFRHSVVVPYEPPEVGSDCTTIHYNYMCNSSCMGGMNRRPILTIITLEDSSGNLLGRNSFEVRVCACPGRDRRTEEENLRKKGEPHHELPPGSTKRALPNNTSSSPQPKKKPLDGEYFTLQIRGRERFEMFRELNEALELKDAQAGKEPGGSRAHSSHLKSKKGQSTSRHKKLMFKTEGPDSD

[3] = molecular target: T1, recombinant human CTNNA3 (CTNNA3-FLAG); experiment: BLI
[4] = molecular target: T1, recombinant human CTNNA3 (CTNNA3-FLAG); experiment: MST

B1: recombinant human FLAG-tagged fortilin (fortilin-FLAG) (natural protein, UniProt P13693 1-172, looked up)
chain: MIIYRDLISHDEMFSDIYKIREIADGLCLEVEGKMVSRTEGNIDDSLIGGNASAEGPEGEGTESTVITGVDIVMNHHLQETSFTKEAYKKYIKDYMKSIKGKLEEQRPERVKPFMTGAAEQIKHILANFKNYQFFIGENMNPDGMVALLDYREDGVTPYMIFFKDGLEMEKC
Q: Does B1 bind [1]?
A: Result: binds

Q: Does B1 bind [2]?
A: Result: binds

B2: recombinant human fortilin (rh-fortilin), Strep-tagged, biotinylated (natural protein, UniProt P13693 1-172, looked up)
chain: B1 chain
modifications: biotin
Q: B2 was tested. Which Kd [3] did it give?
A: Its Kd is 36.1 nM.

B3: recombinant human fortilin (rh-fortilin), Strep-tagged, red-maleimide-labelled (natural protein, UniProt P13693 1-172, looked up)
chain: B1 chain
modifications: red-maleimide fluorescent dye (Monolith red-maleimide 2nd generation protein labeling kit)
Q: For B3, which Kd [4] is on record?
A: The Kd was 33.2 nM.
